For orientation: Kd means the free concentration of one partner at which half of the binding sites on the other are occupied at equilibrium, for simple one-to-one binding. Lower therefore signals tighter binding.

Assay [1] addresses WW12 (YAP2, both WW domains). Description: ITC, WW12 versus PY12. It is filed as binding, human. As to conditions: 25°C, 2 mM DTT, 2 mM EDTA. Here is the method: ITC experiments were performed using the MicroCal VP-ITC titration calorimeter (MicroCal-Malvern). […] The proteins and peptides used were prepared in the same buffer containing 20 mM Tris-HCl pH 7.0 and 100 mM NaCl. Protein concentrations varying from 20 to 70 μM were titrated against peptide concentrations ranging from 0.5 to 1.8 mM at 25°C. The peptide samples were also injected into buffer as a reference to estimate the heat of dilution. In the case of WW12 vs PY12, the buffer used was 20 mM Tris-HCl pH 7.0, 100 mM NaCl, 3% glycerol, 2 mM DTT and 2 mM EDTA. All samples were degassed and spun before the experiment. The binding isotherms were analyzed employing a model that considered a single ligand binding site implemented in Origin 7 (OriginLab).

A further assay deals with WW12. Description: Co-expression, affinity and gel filtration chromatography of WW12-PY12. It is filed as binding, human. The settings on record: WW12 and PY12 co-expressed in E. coli. Here is the method:
Cells were harvested by spinning at 4,000 g for 20 min and lysed by sonication in buffer containing 50 mM Tris-HCl pH 7.0, 200 mM NaCl, 5% glycerol, 2 mM DTT, 0.5% Triton X-100 and 1mM PMSF. […] The GST tag was cleaved overnight using PreScission Protease. In the case of WW12-PY12 complex, an additional Ni-NTA chromatography step was performed, as PY12 contained a His-tag. The eluted proteins were further purified using FPLC Superdex 75 gel filtration in buffer containing 20 mM Tris-HCl pH 7.0, 100 mM NaCl, 5% glycerol and 2 mM DTT. The purity and quality of the purified proteins were assessed using SDS polyacrylamide gel electrophoresis (SDS-PAGE) and dynamic light scattering (DLS).

B1: PY12: LATS1 region PY12 (containing both PPxY motifs; aa 361-567) (protein)
chain: NVVPAGTVNRQPPPPYPLTAANGQSPSALQTGGSAAPSSYTNGSIPQSMMVPNRNSHNMELYNISVPGLQTNWPQSSSAPAQSSPSSGHEIPTWQPNIPVRSNSFNNPLGNRASHSANSQPSATTVTAITPAPIQQPVKSMRVLKPELQTALAPTHPSWIPQPIQTVQPSPFPEGTASNVTVMPPVAEAPNYQGPPPPYPKHLLHQN
modifications: left off: His-tag, end not stated, kept
On to B1, for which the affinity in assay [1] (ITC VP-ITC, 20 mM Tris-HCl pH 7.0, 100 mM NaCl, 3% glycerol, single ligand binding site model), expressed as Kd, was 9.6 µM. In assay [1] (ITC, pH 7.0, 3% glycerol), the “-TΔS” value stood at 33.4 kcal/mol, the ΔG is recorded as -6.8 kcal/mol and the ΔH was -40.2 kcal/mol. In addition, in the assay on WW12, the complex formation entry is “formed a tight complex”.
